{"source": "paper PMC3467263", "about": "“FXR Controls the Tumor Suppressor NDRG2 and FXR Agonists Reduce Liver Tumor Growth and Metastasis in an Orthotopic Mouse Xenograft Model” (PLoS ONE, 2012)", "binders": {"B1": {"name": "biotinylated SRC-1 peptide b-[residues removed]-COOH (peptide)", "peptide": "CPSSHSSLTERHKILHRLLQEGSPS", "HELM": "PEPTIDE1{[O=C1N[C@H]2[C@H](CS[C@H]2CCCCC(=O)[*:2])N1].C.P.S.S.H.S.S.L.T.E.R.H.K.I.L.H.R.L.L.Q.E.G.S.P.S}$$$$V2.0", "SMILES": "CC[C@H](C)[C@H](NC(=O)[C@H](CCCCN)NC(=O)[C@H](Cc1c[nH]cn1)NC(=O)[C@H](CCCNC(=N)N)NC(=O)[C@H](CCC(=O)O)NC(=O)[C@@H](NC(=O)[C@H](CC(C)C)NC(=O)[C@H](CO)NC(=O)[C@H](CO)NC(=O)[C@H](Cc1c[nH]cn1)NC(=O)[C@H](CO)NC(=O)[C@H](CO)NC(=O)[C@@H]1CCCN1C(=O)[C@H](CS)NC(=O)CCCC[C@@H]1SC[C@@H]2NC(=O)N[C@@H]21)[C@@H](C)O)C(=O)N[C@@H](CC(C)C)C(=O)N[C@@H](Cc1c[nH]cn1)C(=O)N[C@@H](CCCNC(=N)N)C(=O)N[C@@H](CC(C)C)C(=O)N[C@@H](CC(C)C)C(=O)N[C@@H](CCC(N)=O)C(=O)N[C@@H](CCC(=O)O)C(=O)NCC(=O)N[C@@H](CO)C(=O)N1CCC[C@H]1C(=O)N[C@@H](CO)C(=O)O", "notes": "Coupled to streptavidin-allophycocyanin through its biotin in the assay"}}, "molecular_target": "T1, human FXR^aa187–472 fused to GST (human, UniProt Q96RI1-2 187-472)", "T1 construct": "Detected in the TR-FRET assay by europium-labelled anti-GST; also called human FXR-LBD; hFXR; source: purified", "T1 sequence (looked up)": "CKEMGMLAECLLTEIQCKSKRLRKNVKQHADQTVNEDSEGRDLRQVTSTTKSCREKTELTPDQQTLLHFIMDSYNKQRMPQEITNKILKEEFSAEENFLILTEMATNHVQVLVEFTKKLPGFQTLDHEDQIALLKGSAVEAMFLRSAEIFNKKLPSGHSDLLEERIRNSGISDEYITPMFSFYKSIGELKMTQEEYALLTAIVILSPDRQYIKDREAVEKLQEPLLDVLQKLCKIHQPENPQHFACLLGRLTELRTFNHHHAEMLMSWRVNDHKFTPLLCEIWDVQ", "assay": "FRET or BRET; homogeneous TR-FRET: biotinylated SRC-1 peptide (0.4 µM), 200 ng streptavidin-allophycocyanin, 6 ng europium-labelled anti-GST and 2.5 ng GST-FXR-LBD in 25 µL of 20 mM Tris/HCl pH 7.5, 5 mM MgCl2, 60 mM KCl, 1 mM DTT, 0.9 g/L BSA; 60 min incubation; FXR agonist (GW4064, PX20606 or PX20350) titrated; duplicates", "details": "both partners purified", "data": [{"binder": "B1", "values": [{"measurement": "binding result", "result": "binds"}]}]}
